What was measured:
SIRPA_V1_IgV = target: T1, SIRPA_V1_IgV (human, UniProt P78324 31-149); assay: SPR Biacore T200, antibody captured on anti-human IgG (Fc), SIRPA_V1_IgV as analyte (0.25 to 16 nM), 1:1 model
T1 construct: Secreted recombinant protein from FreeStyle 293F cells
Procedure: (§1) The dissociation constants were measured by a capture method comprising capturing each antibody as a ligand to an Anti-Human IgG (Fc) antibody immobilized using Human Antibody Capture Kit (GE Healthcare Bioscience Corp.) and measuring an antigen as an analyte, using Biacore T200 (GE Healthcare Bioscience Corp.). HBS-EP+ (GE Healthcare Bioscience Corp.) was used as a running buffer, and CM5 (GE Healthcare Bioscience Corp.) was used as a sensor chip. Onto the chip, 2 μg/mL of various antibodies were added at 10 μL/min for 30 seconds, then a serially diluted solution (0.25 to 16 nM) of the human SIRPA protein as an antigen was added at a flow rate of 30 μL/min for 120 seconds, and subsequently the dissociation phase for 600 seconds was monitored. As a regenerant, 3 M magnesium chloride (GE Healthcare Bioscience Corp.) was added at a flow rate of 20 μL/min for 30 seconds. For data analysis, a binding rate constant (ka), a dissociation rate constant (kd), and a dissociation constant (KD; KD=kd/ka) were calculated using a 1:1 binding model.

SIRPA_V2_IgV = target: T2, SIRPA_V2_IgV (human); assay: SPR Biacore T200, antibody captured on anti-human IgG (Fc), SIRPA_V2_IgV as analyte (0.25 to 16 nM), 1:1 model
T2 construct: Secreted recombinant protein; The crystal model held residues 33 to 143 of human SIRPA Variant 2
Procedure: as §1

human SIRPB = target: T3, human SIRPB (human, UniProt O00241 30-398); assay: flow cytometry on CHO-K1 cells expressing FLAG-tagged human SIRPB; PE anti-human IgG; MFI standardized to secondary antibody alone
T3 construct: whole, on cells; FLAG-tagged (pFLAG V5-DEST), on CHO-K1 cells; also called SIRPβ1; signal regulatory protein β1
Procedure: SIRPβ1 (signal regulatory protein β1: the amino acid sequence thereof is published as RefSeq accession number NP_006056) and SIRPγ (signal regulatory protein γ: the amino acid sequence thereof is published as RefSeq accession number NP_061026) are molecules belonging to the SIRPA family. In the present invention, “SIRPα” may be referred to as “SIRPA,” “SIRPβ1” may be referred to as […] and “SIRPγ” may be referred to as “SIRPG.” CHO-K1 cells were prepared in a 10% FBS-containing Ham's F-12K medium at 3.3×10⁵ cells/mL and cultured overnight at 37° C. under a 5% CO₂ condition. pFLAG V5-DEST-human SIRPβ, pFLAG V5-DEST-human SIRPG, or pFLAG V5-DEST was introduced into the cells using Lipofectamine LTX (Invitrogen), and cells were cultured in a 10% FBS-containing Ham's F-12K medium at 37° C. under a 5% CO₂ condition for 24 hours. The obtained introduced cells were collected and seeded on a 96-well plate. After the culture supernatant was removed, 100 μL per well of various anti-human SIRPA antibodies or various control human IgG was added to each of various gene introduced cells at a final concentration of 0 to 10,000 ng/mL, and the mixture was allowed to stand at 4° C. for 25 minutes. After the mixture was centrifuged, the supernatant was removed, and cells were washed twice with 5% FBS-containing PBS. After the mixture was centrifuged, the supernatant was removed, 50 μL per well of a 1/400 diluted solution of PE Mouse anti-Human IgG antibody (BioLegend) was added, and the mixture was allowed to stand at 4° C. for 25 minutes. After the mixture was centrifuged, the supernatant was removed, and cells were washed twice with 5% FBS-containing PBS.
(§2) After the mixture was centrifuged, and the supernatant was removed, cells were suspended in 100 μL per well of 1× BD Stabilizing Fixative (Becton Dickinson), and the cell count was measured by flow cytometry (FACS Canto II: Becton Dickinson). For data analysis, FlowJo (TreeStar) was used. Cells were characterized by detecting forward scattered (FSC) light and side-scattered (SSC) light, and then the mean fluorescence intensity of PE was calculated. Binding of various antibodies to the family molecules was calculated by standardizing the fluorescence intensity using the mean fluorescence intensity of a sample in which the secondary antibody alone was allowed to react.

human SIRPG = target: T4, human SIRPG (human, UniProt Q9P1W8 29-387); assay: flow cytometry on CHO-K1 cells expressing FLAG-tagged human SIRPG; PE anti-human IgG; MFI standardized to secondary antibody alone
T4 construct: whole, on cells; FLAG-tagged (pFLAG V5-DEST), on CHO-K1 cells; also called SIRPγ; signal regulatory protein γ
Procedure: SIRPβ1 (signal regulatory protein β1: the amino acid sequence thereof is published as RefSeq accession number NP_006056) and SIRPγ (signal regulatory protein γ: the amino acid sequence thereof is published as RefSeq accession number NP_061026) are molecules belonging to the SIRPA family. In the present invention, “SIRPα” may be referred to as “SIRPA,” “SIRPβ1” may be referred to as […] and “SIRPγ” may be referred to as “SIRPG.” CHO-K1 cells were prepared in a 10% FBS-containing Ham's F-12K medium at 3.3×10⁵ cells/mL and cultured overnight at 37° C. under a 5% CO₂ condition. pFLAG V5-DEST-human SIRPβ, pFLAG V5-DEST-human SIRPG, or pFLAG V5-DEST was introduced into the cells using Lipofectamine LTX (Invitrogen), and cells were cultured in a 10% FBS-containing Ham's F-12K medium at 37° C. under a 5% CO₂ condition for 24 hours. The obtained introduced cells were collected and seeded on a 96-well plate. After the culture supernatant was removed, 100 μL per well of various anti-human SIRPA antibodies or various control human IgG was added to each of various gene introduced cells at a final concentration of 0 to 10,000 ng/mL, and the mixture was allowed to stand at 4° C. for 25 minutes. After the mixture was centrifuged, the supernatant was removed, and cells were washed twice with 5% FBS-containing PBS. […]
as §2, with “For data analysis, FlowJo (TreeStar) was used.” left out

T3 sequence (O00241 30-398): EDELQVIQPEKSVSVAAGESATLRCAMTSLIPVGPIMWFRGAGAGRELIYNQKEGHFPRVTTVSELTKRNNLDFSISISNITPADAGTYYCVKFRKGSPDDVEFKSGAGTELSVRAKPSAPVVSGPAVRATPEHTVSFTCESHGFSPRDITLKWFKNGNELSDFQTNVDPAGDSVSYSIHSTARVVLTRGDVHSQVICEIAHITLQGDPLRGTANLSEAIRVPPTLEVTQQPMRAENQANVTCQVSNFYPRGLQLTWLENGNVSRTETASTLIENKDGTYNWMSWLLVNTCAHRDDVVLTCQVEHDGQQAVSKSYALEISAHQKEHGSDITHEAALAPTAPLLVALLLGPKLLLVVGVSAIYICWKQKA
T1 sequence (P78324 other isoform, or with tags, fused parts or gaps limits assumed): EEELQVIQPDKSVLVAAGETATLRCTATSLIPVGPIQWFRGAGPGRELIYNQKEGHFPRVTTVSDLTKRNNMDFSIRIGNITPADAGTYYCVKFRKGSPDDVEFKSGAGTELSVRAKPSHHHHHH
T2 sequence (chain, as listed by the source limits assumed): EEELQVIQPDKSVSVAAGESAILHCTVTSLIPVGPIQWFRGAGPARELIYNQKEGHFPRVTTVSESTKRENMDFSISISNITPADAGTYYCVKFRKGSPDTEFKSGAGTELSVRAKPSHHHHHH
T4 sequence (Q9P1W8 29-387): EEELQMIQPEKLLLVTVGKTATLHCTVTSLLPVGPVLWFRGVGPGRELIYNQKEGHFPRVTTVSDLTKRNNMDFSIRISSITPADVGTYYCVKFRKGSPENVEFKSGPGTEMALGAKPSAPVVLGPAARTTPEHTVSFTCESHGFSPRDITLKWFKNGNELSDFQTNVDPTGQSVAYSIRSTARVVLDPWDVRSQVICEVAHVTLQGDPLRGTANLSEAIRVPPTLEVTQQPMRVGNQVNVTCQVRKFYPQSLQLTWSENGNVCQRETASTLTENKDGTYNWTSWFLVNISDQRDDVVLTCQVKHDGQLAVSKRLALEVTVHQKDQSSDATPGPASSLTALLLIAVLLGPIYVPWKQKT

- Kd (SIRPA_V1_IgV): 252 pM
- Kd (SIRPA_V2_IgV): 1170 pM
- EC50 (read off the curve) (human SIRPB): ~0.03 µg/mL
- EC50 (read off the curve) (human SIRPG): ~0.03 µg/mL
B1: humanized anti-SIRPA antibody hD13_H1L3 (antibody, human IgG4 S228P, kappa, F234A L235A, V domains shown)
VH: QVQLVESGGGVVQPGRSLRLSCAASGFTFSDYGMIWVRQAPGKGLEWVASISSSSSYIYYADSVKGRFTISRDNSKNRLYLQMNSLRAEDTAVYYCARRYYGFNYPFDYWGQGTMVTVSS
VL: DTQLTQSPSSLSASVGQRVTITCGASKSVRTYMHWYQQKPGKQPKLLIYSASNLEAGVPSRFSGSGSGTDFTLTISSLQPEDFATYYCQQSNEPPYTFGQGTKLEIKR
notes: hH1 heavy chain (IgG4proFALA) and hL3 kappa light chain; also called hD13_HIL3; HIL3 antibody

Reference: US20260098102A1 (NATIONAL UNIVERSITY CORPORATION KOBE UNIVERSITY, published 2026)
